Experimental data from IntAct's records for PubMed 20595257.

B1: Aerobic respiration control sensor protein ArcB (Escherichia coli (strain K12)), P0AEC3 (parent)
chain: MKQIRLLAQYYVDLMMKLGLVRFSMLLALALVVLAIVVQMAVTMVLHGQVESIDVIRSIFFGLLITPWAVYFLSVVVEQLEESRQRLSRLVQKLEEMRERDLSLNVQLKDNIAQLNQEIAVREKAEAELQETFGQLKIEIKEREETQIQLEQQSSFLRSFLDASPDLVFYRNEDKEFSGCNRAMELLTGKSEKQLVHLKPADVYSPEAAAKVIETDEKVFRHNVSLTYEQWLDYPDGRKACFEIRKVPYYDRVGKRHGLMGFGRDITERKRYQDALERASRDKTTFISTISHELRTPLNGIVGLSRILLDTELTAEQEKYLKTIHVSAVTLGNIFNDIIDMDKMERRKVQLDNQPVDFTSFLADLENLSALQAQQKGLRFNLEPTLPLPHQVITDGTRLRQILWNLISNAVKFTQQGQVTVRVRYDEGDMLHFEVEDSGIGIPQDELDKIFAMYYQVKDSHGGKPATGTGIGLAVSRRLAKNMGGDITVTSEQGKGSTFTLTIHAPSVAEEVDDAFDEDDMPLPALNVLLVEDIELNVIVARSVLEKLGNSVDVAMTGKAALEMFKPGEYDLVLLDIQLPDMTGLDISRELTKRYPREDLPPLVALTANVLKDKQEYLNAGMDDVLSKPLSVPALTAMIKKFWDTQDDEESTVTTEENSKSEALLDIPMLEQYLELVGPKLITDGLAVFEKMMPGYVSVLESNLTAQDKKGIVEEGHKIKGAAGSVGLRHLQQLGQQIQSPDLPAWEDNVGEWIEEMKEEWRHDVEVLKAWVAKATKK
partner: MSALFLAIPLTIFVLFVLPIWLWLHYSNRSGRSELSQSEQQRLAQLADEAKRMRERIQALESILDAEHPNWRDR
B2: Phage shock protein C (Escherichia coli (strain K12)), P0AFN2 (parent)
chain: MAGINLNKKLWRIPQQGMVRGVCAGIANYFDVPVKLVRILVVLSIFFGLALFTLVAYIILSFALDPMPDNMAFGEQLPSSSELLDEVDRELAASETRLREMERYVTSDTFTLRSRFRQL
B3: Aerobic respiration control sensor protein ArcB (Escherichia coli (strain K12)), P0AEC3 (parent)
chain: B1 chain
B4: Phage shock protein C (Escherichia coli (strain K12)), P0AFN2 (parent)
chain: B2 chain
partner: B1 partner
B5: Aerobic respiration control sensor protein ArcB (Escherichia coli (strain K12)), P0AEC3 (parent)
chain: B1 chain
partner: B2 chain
B6: Phage shock protein B (Escherichia coli (strain K12)), P0AFM9 (parent)
chain: B1 partner
partner: B2 chain

Variants of: B1
Conditions: with pspb_ecoli pspB

Q: With L87A;L90A;L94A;M97A as the variant, how does the “effect of a mutation on the interaction” value read?
A: with no effect

Variants of: B2
Conditions: with pspa_ecoli pspA

Q: How did the “effect of a mutation on the interaction” value turn out when MAGINLNKKLWRIPQQGMVRGVCAGIANYFDVPVKLVRILVVLSIFFGLALFTLVAYIILSFALDPMPDNMAFGEQLPSSSELLDEVDREAAASETRAREMERYVTSDTFTLRSRFRQL [L91A;L98A] was run?
A: disrupting interaction strength

Q: MAGINLNKKLWRIPQQGMVRGVCAGIANYFDVPVKLVRILVVLSIFFGLALFTLVAYIILSFALDPMPDNMAFAEQLPSSSELLDEVDRELAASETRLREMERYVTSDTFTLRSRFRQL [G74A] was tested. Which “effect of a mutation on the interaction” value did it give?
A: with no effect

Q: MAGINLNKKLWRIPQQGMVRGVCAGIANYFDVPVKLVRILVVLSIFFALALFTLVAYIILSFALDPMPDNMAFGEQLPSSSELLDEVDRELAASETRLREMERYVTSDTFTLRSRFRQL [G48A] was tested. Which “effect of a mutation on the interaction” value did it give?
A: disrupting interaction strength

Variants of: B3
Conditions: with pspa_ecoli pspA

Q: For L87A;L90A;L94A;M97A, which “effect of a mutation on the interaction” value is on record?
A: with no effect

Variants of: B4
Conditions: with pspb_ecoli pspB

Q: MAGINLNKKLWRIPQQGMVRGVCAGIANYFDVPVKLVRILVVLSIFFALALFTLVAYIILSFALDPMPDNMAFGEQLPSSSELLDEVDRELAASETRLREMERYVTSDTFTLRSRFRQL [G48A] was tested. Which “effect of a mutation on the interaction” value did it give?
A: with no effect

Q: MAGINLNKKLWRIPQQGMVRGVCAGIANYFDVPVKLVRILVVLSIFFGLALFTLVAYIILSFALDPMPDNMAFAEQLPSSSELLDEVDRELAASETRLREMERYVTSDTFTLRSRFRQL [G74A] was tested. Which “effect of a mutation on the interaction” value did it give?
A: with no effect

Variants of: B5
Conditions: with pspc_ecoli pspC

Q: Which “effect of a mutation on the interaction” value does the source give for L87A;L90A;L94A;M97A here?
A: with no effect

Variants of: B6
Conditions: with pspc_ecoli pspC

Q: With MSALFLAIPATIFVAFVAPIWLWLHYSNRSGRSELSQSEQQRLAQLADEAKRMRERIQALESILDAEHPNWRDR [L10A;L15A;L18A] as the variant, how does the “effect of a mutation on the interaction” value read?
A: with no effect
